# According to publication PMC9282251 (Proceedings of the National Academy of Sciences of the …, 2022):
# B1: K401-clip labeled with Alexa-647 (domain or fragment)
# chain: not shown
# modifications: Alexa-647 label (labeling efficiencies of 15% monomer and 58% monomer in two preparations)
# Target: the molecule itself
# Assay: single-molecule photobleaching and fluorescence intensity analysis
protein,measurement,value
B1,stoichiometry N,2
